This is an account of results in the supplement of paper PMC10201428.

± gives the standard deviation of the averaged measurements.

In this series the test system is VchCAST RNA-guided transposition machinery (E. coli BL21(DE3) host, lacZ target). In words: relative integration efficiency (T-LR orientation) vs wild-type transposon end (log2 (normalized fold change)); transposon end mutated: right end (5 bp flank + 75 bp right end); higher = more efficient transposition. The gist of the method: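 In E. coli BL21(DE3), a T7-driven effector plasmid was paired with a pUC57 mini-transposon donor containing 1549 left-end or 1849 right-end barcoded transposon variants. Cells grew on plates with 0.1 mM IPTG at 37°C for 18 h. Relative integration efficiency was derived from Illumina reads of genomic integration junctions against input plasmids, as a log-transformed output/input barcode fold change normalised to reference barcodes.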
In the case of “ACATTTGTTGATACAACCATAAGTTGATATTTTCAACCATAAAGTGATATTTATCACAACCATAAAGTGATATTTACTCTGATCATAGTCAGACCAACATTGCTACGACCCGTATTCGCACCGACAC”, the “relative integration efficiency (log2)” value is -0.067 ± 0.078.
For “ACATTTGTGGATACAACCCTAAAATGATAATTACACCCATAAATGGATCATTATCACCCCCAATTTAACTATAACGCTCTGATCATAGTCAGACCAACATTGCTACGACCCGTATTCGCACCGACAC” the value was -1.88 ± 0.26; for “ACATTTGTTGATACAACCATAAAATGATAATTAATAATTATTTATAATCAGCAACTTCACCCATAAATTGATAATTATCACACCCATAAATTGATATTGCCTCTGATCATAGTCAGACCAACATTGC”, -1.32 ± 0.21.
For “ACATTTGTTGATACCACCATCAAATGGTAATTCCACCCATAAATTGATAATTATCACACCCAATTTAACTATAACGCTCTGATCATAGTCAGACCAACATTGCTACGACCCGTATTCGCACCGACAC” the value was -0.205 ± 0.08; for “ACATTTGTTGATACAACCATAAAATCATAATTACACCCATAAATTCATAATTATCACACCCATAAATTCATATTGCCTCTGATCATAGTCAGACCAACATTGCTACGACCCGTATTCGCACCGACAC”, -1.52 ± 0.48.
In the case of “ACATTTGTTGATACAACCATATATTGATATCTCCACCCATAAATTGATAATTATCACAACCATAAAATGATAATTACTCTGATCATAGTCAGACCAACATTGCTACGACCCGTATTCGCACCGACAC” it was -0.483 ± 0.35; in that of “ACATTTGTTGATACAACCATAAAATGATAATTACAACCATAAAATGATAATTATGATAATTATCATTTTATGGTTGCTCTGATCATAGTCAGACCAACATTGCTACGACCCGTATTCGCACCGACAC”, 1.99 ± 0.068.
Consider “ACATTTGTTGATACACCCATAAATTGATATTGCCAACCATAAAGTGATATTTATCACAACCATAAGTTGATATTTTCTCTGATCATAGTCAGACCAACATTGCTACGACCCGTATTCGCACCGACAC”, for which the “relative integration efficiency (log2)” value is -0.0145 ± 0.0084.
In the case of “ACATTTGTTGATACAACCATAAAATGATAATTACACCCATAAATTGATAATTATCACACCCATAAAGGTCGCGGTAAGAGGATCATAGTCAGACCAACATTGCTACGACCCGTATTCGCACCGACAC”, the “relative integration efficiency (log2)” value came to 2.16 ± 0.14.
Take “ACATTTGTTGATACAACCATACCATGATAATTACACCCATACCTTGATAATTATCACACCCATACCTTGATATTGCCTCTGATCATAGTCAGACCAACATTGCTACGACCCGTATTCGCACCGACAC”: the “relative integration efficiency (log2)” value is -1.75 ± 0.22.
In the case of “ACATTTGTTCATACAACCATAAAATGATAATTACCACCCCTAAATTGATAATTATCACACCCATTTAACTATAACGCTCTGATCATAGTCAGACCAACATTGCTACGACCCGTATTCGCACCGACAC” it was -2.87 ± 0.85; in that of “ACATTTGTTGATACAACCATAAAATGATATTTACACCCATAAATTGATATTTATCACACCCATAAATTGATAATGCCTCTGATCATAGTCAGACCAACATTGCTACGACCCGTATTCGCACCGACAC”, -0.16 ± 0.048; in that of “ACATTTGTTGATACAACCATAAGTTGATATTTTCAACCATATATTGATATCTCTCACAACCATAAGTTGATATTTTCTCTGATCATAGTCAGACCAACATTGCTACGACCCGTATTCGCACCGACAC”, -0.0553 ± 0.32.
In the case of “ACATTTGTTGATACAACCATAAAGTGATATTTACAACCATAAAGTGATATTTATCAGTGGGTATTTAACTATAACGCTCTGATCATAGTCAGACCAACATTGCTACGACCCGTATTCGCACCGACAC” it was 2.91 ± 0.034; in that of “ACATTTGTTGATACAACCATAAAATGATAATTACACCCATAAATTGATCCTTATCACACCCATAAATTGATATTGCCTCTGATCATAGTCAGACCAACATTGCTACGACCCGTATTCGCACCGACAC”, -0.418 ± 0.47; in that of “ACATTTGTGGATACAACCCTAAAATGATAATTACACCCATAAATTGATAATTATCACACCCAATTTAACTATAACGCTCTGATCATAGTCAGACCAACATTGCTACGACCCGTATTCGCACCGACAC”, 1.32 ± 0.36.
For “ACATTTGTCGATACAACCCTAAAATGATAATTACACCCATAAATTCATCATTATCACCCCCAATTTAACTATAACGCTCTGATCATAGTCAGACCAACATTGCTACGACCCGTATTCGCACCGACAC” the value was -1.16 ± 0.18.
Regarding “ACATTTGTTGATACATCCATAAAATGATAATTACAGCCATAAATTGATAATTATCACAGCCATAAATTGATATTGCCTCTGATCATAGTCAGACCAACATTGCTACGACCCGTATTCGCACCGACAC”, the “relative integration efficiency (log2)” value was -0.607 ± 0.2.
In the case of “ACATTACAAGATACAACCATAAAATGATAATTACACCCATAAATTGATAATTATCACACCCATAAATTGATATTGCCTCTGATCATAGTCAGACCAACATTGCTACGACCCGTATTCGCACCGACAC” it was -4.65 ± 0.93; in that of “ACATTTGTTGATACAACCATAAAAGGATAATTACCCCCATCAATTGATAATTATCACACCCCATTTAACTATAACGCTCTGATCATAGTCAGACCAACATTGCTACGACCCGTATTCGCACCGACAC”, -0.157 ± 0.13.
In the case of “ACATTTGTTCATACAACCATAAAATGATAATTACACCCATAAATTCATCATTATCACACCCAATTTAACTATAACGCTCTGATCATAGTCAGACCAACATTGCTACGACCCGTATTCGCACCGACAC” it was -0.334 ± 0.16; in that of “ACATTTGTTGATACCACCATAAAATGGTAATTCCACCCCTAAATTGATAATTATCACACCCAATTTAACTATAACGCTCTGATCATAGTCAGACCAACATTGCTACGACCCGTATTCGCACCGACAC”, -0.252 ± 0.21; in that of “ACATTTGTTGATACAACCATAAAATGATCATTCACCCATAAATTGATAATTATCACACCCACATTTAACTATAACGCTCTGATCATAGTCAGACCAACATTGCTACGACCCGTATTCGCACCGACAC”, 0.654 ± 0.11.
For “ACATTTGTTGATACAACCATAAAATCATAATTACCCCCATAAATTGATAATTATCACACCCAATTTAACTATAACGCTCTGATCATAGTCAGACCAACATTGCTACGACCCGTATTCGCACCGACAC” the value was 0.699 ± 0.11.
For “ACATTTGTTGATACAACCATATATTGATATCTCCACCCATAAATTGATATTGCTCACAACCATAAAGTGATATTTACTCTGATCATAGTCAGACCAACATTGCTACGACCCGTATTCGCACCGACAC”, the “relative integration efficiency (log2)” value is -0.202 ± 0.54.
